Data reported in the Immune Epitope Database (IEDB).

Experiments:
HLA-A*69:01 = assay: IEDB peptide-MHC binding, purified MHC/direct/fluorescence; filed as Kd, often an IC50 or EC50 that approximates it; ≥ and ≤ were set here for values at or beyond the usual limits of such assays
HLA-A*26:01 = assay: as above; conditions: source organism: Salmonella enterica
HLA-A*01:01 = assay: as above
HLA-A*30:01 = assay: as above; conditions: source organism: Salmonella enterica subsp. enterica serovar Typhi
HLA-B*27:05 = assay: as above
HLA-C*06:02 = assay: as above; conditions: source organism: Salmonella enterica subsp. enterica serovar Typhi str. CT18
HLA-A*11:01 = assay: as above
HLA-A*02:01 [1] = assay: as above; conditions: source organism: Salmonella enterica
HLA-C*07:02 = assay: as above
HLA-A*31:01 = assay: as above
HLA-B*15:01 = assay: as above
HLA-B*08:01 = assay: as above
HLA-B*73:01 = assay: as above
HLA-B*58:01 = assay: as above
HLA-B*44:02 = assay: as above
HLA-B*40:01 = assay: as above; conditions: source organism: Salmonella enterica
HLA-A*03:01 = assay: as above; conditions: source organism: Salmonella enterica
HLA-B*48:01 = assay: as above
HLA-A*03:19 = assay: IEDB peptide-MHC binding, purified MHC/competitive/fluorescence; filed as Kd, often an IC50 or EC50 that approximates it; ≥ and ≤ were set here for values at or beyond the usual limits of such assays; conditions: source organism: Mycobacterium tuberculosis variant bovis BCG str. Pasteur 1173P2
HLA-B*15:42 = assay: as above; conditions: source organism: Mycobacterium tuberculosis variant bovis BCG str. Pasteur 1173P2
HLA-B*83:01 = assay: as above; conditions: source organism: Mycobacterium tuberculosis variant bovis BCG str. Pasteur 1173P2
HLA-B*45:06 = assay: as above; conditions: source organism: Mycobacterium tuberculosis variant bovis BCG str. Pasteur 1173P2
HLA-B*18:01 [2] = assay: IEDB peptide-MHC binding, purified MHC/direct/fluorescence; filed as Kd, often an IC50 or EC50 that approximates it; ≥ and ≤ were set here for values at or beyond the usual limits of such assays; conditions: source organism: Mammarenavirus lassaense
HLA-B*08:02 = assay: as above; conditions: source organism: Mammarenavirus lassaense
HLA-A*29:02 = assay: as above; conditions: source organism: Mammarenavirus lassaense
HLA-B*46:01 = assay: as above; conditions: source organism: Mammarenavirus lassaense
HLA-B*57:01 = assay: as above
HLA-A*68:02 = assay: as above; conditions: source organism: Camelpox virus M-96
HLA-B*15:09 = assay: as above; conditions: source organism: Variola virus
HLA-A*26:03 = assay: as above; conditions: source organism: Variola virus
HLA-A*24:03 = assay: as above; conditions: source organism: Camelpox virus M-96
HLA-A*26:02 = assay: as above; conditions: source organism: Variola virus
HLA-B*07:02 = assay: as above; conditions: source organism: Camelpox virus M-96
HLA-B*08:03 = assay: as above; conditions: source organism: Variola virus
HLA-B*18:01 [3] = assay: IEDB peptide-MHC binding, purified MHC/competitive/fluorescence; filed as Kd, often an IC50 or EC50 that approximates it; ≥ and ≤ were set here for values at or beyond the usual limits of such assays; conditions: source organism: Vaccinia virus WR
HLA-A*02:01 [4] = assay: as above; conditions: source organism: Vaccinia virus WR
HLA-B*15:17 = assay: as above; conditions: source organism: Vaccinia virus WR
[5] = source organism: Salmonella enterica
[6] = source organism: Salmonella enterica subsp. enterica serovar Typhi
[7] = source organism: Mycobacterium tuberculosis
[8] = source organism: Mammarenavirus lassaense
[9] = source organism: Camelpox virus M-96

Sequence: RRRQWASCM
- Kd (HLA-A*69:01; [5]): ≥ 20 µM
- Kd (HLA-A*26:01): ≥ 20 µM
- Kd (HLA-A*01:01; [5]): ≥ 20 µM
- Kd (HLA-A*30:01): ≥ 20 µM
- Kd (HLA-B*27:05; [6]): 0.0774 µM
- Kd (HLA-C*06:02): 0.024 µM
- Kd (HLA-A*11:01; [5]): ≥ 20 µM
- Kd (HLA-A*02:01 [1]): ≥ 20 µM
- Kd (HLA-C*07:02; source organism: Salmonella enterica subsp. enterica serovar Typhi str. CT18): 0.045 µM
- Kd (HLA-A*31:01; [5]): ≥ 20 µM
- Kd (HLA-B*15:01; [5]): ≥ 20 µM
- Kd (HLA-B*08:01; [6]): 13.9 µM
- Kd (HLA-B*73:01; source organism: Salmonella enterica subsp. enterica serovar Typhimurium): ≥ 20 µM
- Kd (HLA-B*58:01; [5]): ≥ 20 µM
- Kd (HLA-B*44:02; [5]): ≥ 20 µM
- Kd (HLA-B*40:01): ≥ 20 µM
- Kd (HLA-A*03:01): ≥ 20 µM

Sequence: QRIAVPVTK
- Kd (HLA-B*27:05; [7]): 0.095 µM
- Kd (HLA-B*48:01; [7]): ≥ 20 µM
- Kd (HLA-B*73:01; source organism: Mycobacterium tuberculosis str. Haarlem): ≥ 20 µM

Sequence: RWRWFRAAM
- Kd (HLA-A*03:19): 0.814 µM
- Kd (HLA-B*15:42): ≥ 5 µM
- Kd (HLA-B*83:01): ≥ 5 µM
- Kd (HLA-B*45:06): ≥ 5 µM

Sequence: QLDQRRALL
- Kd (HLA-B*18:01 [2]): ≥ 20 µM
- Kd (HLA-B*27:05; [8]): ≥ 20 µM
- Kd (HLA-B*08:02): 15.1 µM
- Kd (HLA-B*48:01; [8]): ≥ 20 µM
- Kd (HLA-A*29:02): ≥ 20 µM
- Kd (HLA-B*15:01; [8]): ≥ 20 µM
- Kd (HLA-B*08:01; [8]): 0.773 µM
- Kd (HLA-B*46:01): ≥ 20 µM
- Kd (HLA-B*58:01; [8]): ≥ 20 µM
- Kd (HLA-B*57:01; [8]): ≥ 20 µM
- Kd (HLA-B*44:02; [8]): ≥ 20 µM

Sequence: FYLFTFTIY
- Kd (HLA-A*69:01; [9]): ≥ 20 µM
- Kd (HLA-A*68:02): ≥ 20 µM
- Kd (HLA-A*01:01; [9]): ≥ 20 µM
- Kd (HLA-B*15:09): ≥ 20 µM
- Kd (HLA-A*11:01; [9]): ≥ 20 µM
- Kd (HLA-A*26:03): ≥ 20 µM
- Kd (HLA-A*24:03): 1.25 µM
- Kd (HLA-A*26:02): ≥ 20 µM
- Kd (HLA-C*07:02; source organism: Vaccinia virus WR): 2 µM
- Kd (HLA-A*31:01; [9]): ≥ 20 µM
- Kd (HLA-B*15:01; [9]): ≥ 20 µM
- Kd (HLA-B*58:01; [9]): ≥ 20 µM
- Kd (HLA-B*07:02): ≥ 20 µM
- Kd (HLA-B*08:03): ≥ 20 µM
- Kd (HLA-B*57:01; [9]): ≥ 20 µM
- Kd (HLA-B*18:01 [3]): 3.89 µM
- Kd (HLA-A*02:01 [4]): ≥ 20 µM
- Kd (HLA-B*15:17): ≥ 20 µM
